Data published in patent US20110263454A1, “Methods of Identifying Functional Characteristics of Promoters, Transcription Modifying Proteins and Transcription Modulating Agents” (Salk Institute for Biological Studies, priority 2008, published 2011).

B1: GCNF: Germ Cell Nuclear Factor (NR6A1, GCNF1), cDNA driver (protein, UniProt Q15406 1-480, looked up)
Nuclear receptor subfamily 6 …: MERDEPPPSGGGGGGGSAGFLEPPAALPPPPRNGFCQDELAELDPGTISVSDDRAEQRTCLICGDRATGLHYGIISCEGCKGFFKRSICNKRVYRCSRDKNCVMSRKQRNRCQYCRLLKCLQMGMNRKAIREDGMPGGRNKSIGPVQISEEEIERIMSGQEFEEEANHWSNHGDSDHSSPGNRASESNQPSPGSTLSSSRSVELNGFMAFREQYMGMSVPPHYQYIPHLFSYSGHSPLLPQQARSLDPQSYSLIHQLLSAEDLEPLGTPMLIEDGYAVTQAELFALLCRLADELLFRQIAWIKKLPFFCELSIKDYTCLLSSTWQELILLSSLTVYSKQIFGELADVTAKYSPSDEELHRFSDEGMEVIERLIYLYHKFHQLKVSNEEYACMKAINFLNQDIRGLTSASQLEQLNKRYWYICQDFTEYKYTHQPNRFPDLMMCLPEIRYIAGKMVNVPLEQLPLLFKVVLHSCKTSVGKE
B2: SHP: Small Heterodimer Partner (NR0B2), cDNA driver (protein, UniProt Q15466 1-257, looked up)
Nuclear receptor subfamily 0 …: MSTSQPGACPCQGAASRPAILYALLSSSLKAVPRPRSRCLCRQHRPVQLCAPHRTCREALDVLAKTVAFLRNLPSFWQLPPQDQRRLLQGCWGPLFLLGLAQDAVTFEVAEAPVPSILKKILLEEPSSSGGSGQLPDRPQPSLAAVQWLQCCLESFWSLELSPKEYACLKGTILFNPDVPGLQAASHIGHLQQEAHWVLCEVLEPWCPAAQGRLTRVLLTASTLKSIPTSLLGDLFFRPIIGDVDIAGLLGDMLLLR
B3: DAX-1: DAX1 (NR0B1), cDNA driver (protein, UniProt P51843 1-470, looked up)
Nuclear receptor subfamily 0 …: MAGENHQWQGSILYNMLMSAKQTRAAPEAPETRLVDQCWGCSCGDEPGVGREGLLGGRNVALLYRCCFCGKDHPRQGSILYSMLTSAKQTYAAPKAPEATLGPCWGCSCGSDPGVGRAGLPGGRPVALLYRCCFCGEDHPRQGSILYSLLTSSKQTHVAPAAPEARPGGAWWDRSYFAQRPGGKEALPGGRATALLYRCCFCGEDHPQQGSTLYCVPTSTNQAQAAPEERPRAPWWDTSSGALRPVALKSPQVVCEAASAGLLKTLRFVKYLPCFQVLPLDQQLVLVRNCWASLLMLELAQDRLQFETVEVSEPSMLQKILTTRRRETGGNEPLPVPTLQHHLAPPAEARKVPSASQVQAIKCFLSKCWSLNISTKEYAYLKGTVLFNPDVPGLQCVKYIQGLQWGTQQILSEHTRMTHQGPHDRFIELNSTLFLLRFINANVIAELFFRPIIGTVSMDDMMLEMLCTKI

tested on: mUCP1 promoter; test: NHR-promoter luciferase screen, mUCP1 promoter; type: cell-based, mouse; settings: mUCP1 promoter reporter; co-transfected HR, with or without its ligand
Procedure, shortened: (§1)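 CV-1 cells were co-transfected with 50 ng NHR (homodimer or NHR/RXR heterodimer), 100 ng promoter-luciferase construct and 50 ng LacZ. Luciferase was normalized to LacZ and to a no-NHR/no-ligand control.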

Molecule | Luc. act., normalized to lacZ
B1 | 3.8
B2 | 4.1
B3 | 6.2

same assay, conditions: mUCP1 promoter reporter; co-transfected HR, with or without its ligand; relative to control

Molecule | Normalized Luc. act., normalized to control
B1 | 0.8
B2 | 0.9
B3 | 1.4

same assay, conditions: mUCP! promoter-luciferase, CV-1 cells, NHR +/- ligand, control = 1.00

Molecule | luciferase activity normalized to lacZ activity and to a control, mUCP!
B1 | 0.85
B2 | 0.93
B3 | 1.39

tested on: mAgrp promoter; test: NHR-promoter luciferase screen, mAgrp promoter; type: cell-based, mouse; settings: Table 6d; luciferase activity relative to control (control = 1.00)
Procedure, shortened: as §1

Molecule | Results of assays of transcription factor (+/- ligand) with mAgrp
B1 | 1.42
B2 | 1.12
B3 | 1.07

same assay, conditions: mAgrp promoter; HR component with or without ligand

Molecule | Luc. act., normalized to lacZ
B1 | 56.5
B2 | 44.6
B3 | 42.3

same assay, conditions: mAgrp promoter; HR component with or without ligand; relative to control

Molecule | Normalized Luc. act., normalized to control
B1 | 1.4
B2 | 1.1
B3 | 1.1

tested on: mPgc1b promoter; test: NHR-promoter luciferase screen, mPgc1b promoter; type: cell-based, mouse; settings: PGC1b promoter reporter; co-transfected HR, without or with its ligand
Procedure, shortened: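 Luciferase reporter read-out after co-expression in CV-1 cells of V5H6-tagged receptor (alone or with RXR), the promoter construct and LacZ. Values are luciferase/LacZ relative to a control lacking NHR or ligand; orphan receptors tested ligand-free.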

Molecule | Luc. act., normalized to lacZ
B1 | 11.7
B2 | 9.0
B3 | 7.4

same assay, conditions: PGC1b promoter reporter; co-transfected HR, without or with its ligand; relative to control

Molecule | Normalized Luc. act., normalized to control
B1 | 1.0
B2 | 0.8
B3 | 0.6

same assay, conditions: mPgc1b promoter-luciferase, CV-1 cells, NHR +/- ligand, control = 1.00

Molecule | luciferase activity normalized to lacZ activity and to a control, mPgc1b
B1 | 0.99
B2 | 0.76
B3 | 0.62

tested on: mAdiponectin promoter; test: NHR-promoter luciferase screen, mAdiponectin promoter; type: cell-based, mouse; settings: Adiponectin; HR component without or with its ligand
Procedure, shortened: as §1

Molecule | Luc. act., normalized to lacZ | Normalized Luc. act., normalized to control
B1 | 63.1 | 1.0
B2 | 46.1 | 0.7
B3 | 45.6 | 0.7

same assay, conditions: transcription factor +/- ligand; control = 1.00

Molecule | mAdiponectin promoter reporter activity
B1 | 1.00
B2 | 0.73
B3 | 0.73

tested on: mGhrelin promoter; test: NHR-promoter luciferase screen, mGhrelin promoter; type: cell-based, mouse; settings: Table 8; mGhrelin
Procedure, shortened: as §1

Molecule | Luc. act., normalized to lacZ | Normalized Luc. act., normalized to control
B1 | 50.7 | 1.0
B2 | 56.5 | 1.1
B3 | 63.3 | 1.2

same assay, conditions: Table 6d; luciferase activity relative to control (control = 1.00)

Molecule | Results of assays of transcription factor (+/- ligand) with mGhrelin
B1 | 0.97
B2 | 1.08
B3 | 1.21
